In paper PMC4068106:

Target: T1, human C-reactive protein (GMP preparation) (human), P02741
T1 chain: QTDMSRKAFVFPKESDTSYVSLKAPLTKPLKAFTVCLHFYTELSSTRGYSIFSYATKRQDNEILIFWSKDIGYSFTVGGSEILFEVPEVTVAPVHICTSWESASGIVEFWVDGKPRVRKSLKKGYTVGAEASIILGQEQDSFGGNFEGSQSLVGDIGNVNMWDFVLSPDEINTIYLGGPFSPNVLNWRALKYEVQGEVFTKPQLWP
Experiment: SEC; 0.02 mg in 100 uL on Superdex 200, 0.5 mL/min, 10 mM Tris, 140 mM NaCl, 2 mM CaCl2, pH 8.0; self-assembly of CRP
Settings: remark: other sources report otherwise

B1: human C-reactive protein (GMP preparation), P02741 19-224 (natural protein)
chain: T1 chain
modifications: here or on the partner: N-terminal PCA; N-terminal PCA
Q: For B1, which stoichiometry N is on record?
A: 5
